How the values were obtained:
Format in all cases: biochemical, Z. mays
[1] = tested on: 4-hydroxyphenylpyruvate dioxygenase (HPPD); assay: ON rate ratio: HPPD reaction rate with vs without inhibitor in the 70 to 90 second interval; conditions: Table 7; tembotrione; combinatorial variants
Text: (§1) Higher KD (reduced affinity or increased insensitivity) can be attained with a numerically smaller ON rate, a larger OFF rate or both. To detect and quantify changes in kON and kOFF, observations of the time course of an HPPD reaction as inhibitor binds to and inactivates the enzyme (kON), or is released from a pre-formed enzyme-inhibitor complex (kOFF) were used, as shown in FIGS. 13A and 13B. In practice, a quantitative indicator of kON was obtained by monitoring the time courses of HPPD reactions containing 60 or 120 nM HPPD and 100 μM HPP in the presence and absence of 4 μM inhibitor (e.g., mesotrione or tembotrione). The ratio of the reaction rate with inhibitor to that without inhibitor during the 70 to 90 second interval of the reaction was termed the “ON rate ratio”. The smaller the actual kON, the more slowly the HPPD reaction decelerates and the higher the value is for the ON rate ratio. FIGS. 13A and 13B illustrate the contrasting reaction velocity in the 70-90 sec interval for maize wild-type HPPD (FIG. 13A) versus an improved variant (SEQ ID NO:78) (FIG. 13B).

[2] = tested on: 4-hydroxyphenylpyruvate dioxygenase (HPPD); assay: OFF rate ratio: release of inhibitor from pre-formed enzyme-inhibitor complex; conditions: Table 7; tembotrione; combinatorial variants
Method: A quantitative indicator of kOFF can be obtained by observing the time course of an HPPD reaction as inhibitor is released from a pre-formed enzyme-inhibitor complex. HPPD and inhibitor were incubated together at concentrations of 7.2 and 8 μM, respectively. Incubations with the same concentrations of enzyme but no inhibitor were done in parallel. After 1 hr at room temperature, 5 to 10 μl of the enzyme-inhibitor complex was dispensed into the wells of the assay plate. Reactions were started with the addition of 290 to 295 μl of 25 mM Hepes, pH 7, 2 mM ascorbate, 10 μM FeSO4, 100 μM HPP and 50 nM HGD. The reactions were monitored at 320 nm for 12 min. Reaction velocity accelerates as inhibitor is released from the enzyme until a steady state is reached, during which the reaction velocity is constant. The ratio of the steady state rate in mixtures containing herbicidal inhibitor to the initial velocity of mixtures lacking inhibitor is termed the “OFF rate ratio”.
Another parameter to record is the time span required for the reactions with inhibitor to reach the steady state. FIGS. 13C and 13D illustrate the contrasting time span in which maize wild-type HPPD (FIG. 13C) and an improved variant (SEQ ID NO:78) (FIG. 13D) dissociated from mesotrione, as indicated by the accelerating reaction rates. The plateau of absorbance is due to exhaustion of the substrate. With the improved variant, not only was the steady state attained in a shorter time span (80 sec for the variant versus 280 sec for wild type), the velocity attained was twice as high as with wild type, though the enzymes were present at the same concentration (240 nM). This is because a larger fraction of the variant enzyme is free of inhibitor compared to the wild-type enzyme, and the kcat for both is nearly the same, about 220 min^−1.

[3] = tested on: 4-hydroxyphenylpyruvate dioxygenase (HPPD); assay: Insensitivity parameter (ON × OFF) and trait fitness (ON × OFF × kcat/KM or × kcat); design: key to ON × OFF / Insensitivity, mesotrione, ON × OFF / Insensitivity, tembotrione, ON × OFF / Insensitivity, topramezone, ON × OFF / Insensitivity, sulcotrione, ON × OFF / Insensitivity, isoxaflutole (DKN), ON × OFF: insensitivity = ON rate ratio × OFF rate ratio (surrogate for KD)
Text: Because substrate and inhibitors bind in the same site, the high concentration of substrate present may competitively trap the inhibitor and prevent it from binding again. To be sure that improvement in ON rates is being taken into account, the ON and OFF rate ratios were multiplied, creating an “insensitivity parameter” that is a surrogate for KD. KD is expressed as kOFF/kON, but because the ON rate ratio is an inverse parameter (the higher the value of ON rate ratio, the lower the value of the represented phenomenon, kON), it is appropriate to multiply ON and OFF rate ratios rather then divide OFF rate ratio by ON rate ratio. Another parameter, which quantifies the combined catalytic and insensitivity properties of the enzyme is kcat/KM×ON rate ratio×OFF rate ratio, and is termed “trait fitness”. This parameter is intended to have a meaning similar to the commonly used expression kcat/KM×Ki.

[4] = tested on: 4-hydroxyphenylpyruvate dioxygenase (HPPD); assay: Estimate of kcat from initial rate at saturating hydroxyphenylpyruvate without inhibitor (ON rate ratio assay)
Text: as §1
Thirty nine variants were desensitized to tembotrione compared with the backbone enzyme, Round 7, variant 9070 (SEQ ID NO:2) and all were desensitized compared with maize wild type HPPD (SEQ ID NO:1). Because the assay for ON rate ratio includes an initial rate measurement at saturating hydroxyphenylpyruvate without inhibitor and with known enzyme concentration, an estimate of kcat was available. Taking into account kcat and insensitivity parameters, 30 variants were selected for measurement of substrate saturation kinetic parameters and re-evaluation of insensitivity to tembotrione. The kinetic and insensitivity parameters were determined as described in Example 1, and were multiplied to generate the “trait fitness” parameter. The complete list of variants, i.e., of selected single substitutions in SEQ ID NO:2, analyzed with multiple inhibitors and the results obtained are shown in Table 6. The same set of 30 variants were evaluated for insensitivity to mesotrione, sulcotrione, isoxaflutole (its active diketonitrile form, abbreviated DKN in Table 6) and topramezone.

[5] = Table 7, tembotrione, combinatorial variants
[6] = Table 7, combinatorial variants

| ON rate ratio [1] | OFF rate ratio [2] | ON × OFF ([3]; Megatable 3, shuffled variants) | ON × OFF [3, 5] | Molecule | ON × OFF × kcat ([3]; Megatable 3, shuffled variants) | ON × OFF × kcat [3, 5] | kcat ([4]; Megatable 3, shuffled variants) | kcat [4, 6] |
| --- | --- | --- | --- | --- | --- | --- | --- | --- |
| 0.745 | 0.309 | 0.230 | 0.230 | P056028-B-01 (protein, Zea mays variant form created by artificial means.) MGPTPTATAAGAAVAAASAAEQAAFRLVGHRNFVRFNPRSDRFQTLAFHHVELWCADAASAAGRFSFALGVPLAARSDLSTGNSAHASLLLRSGSLSLLFTAPYAHGADAATAALPSFSAAAARRFAADHGLAVRAVALRVADAEDAFRASVAAGARPAFGPVDLGRGFRLAEVELYGDVVLRYVSYPDGAAGEPFLPGFEGVASPGAADYGLSRFDHIVGNVPELAPAAAYMAGFTGFHEFAEFTTEDVGTTESGLNSMALANNSENVLLPLNEPVHGTKRRSQIQTFLDHHGGPGVQHIALASDDVLRTLREMRARSAMGGFEFLPPPLSDYYDGVRKCAGDVLTEAQINECQELGVMVDRDDEGVLLQIFTKPVGDRPTFFLELIQRIGCMEKDEKGQEYQKGGCGGFGKGNFGQLFKSIEDYEKSLEAKQAAAAATAQGS | 4.28 | 4.28 | 0.31 s⁻¹ | 0.31 s⁻¹ |
| 0.703 | 0.327 | 0.230 | 0.230 | P056028-B-10 (protein, Zea mays variant form created by artificial means.) MGPTPTATAAGAAVAAASAAEQAAFRLVGHRNFVRFNPRSDRFQTLAFHHVELWCADAASAAGRFSFALGVPLAARSDLSTGNSAHASLLLRSGSLSLLFTAPYAHGADAATAALPSFSAAAARRFAADHGLAVRAVALRVADAEDAFRASVAAGARPAFGPVDLGRGFRLAEVELYGDVVMRYVSYPDGAAGEPFLPGFEGVASPGAADYGLSRFDHIVGNVPELAPAAAYMAGFTGFHEFAEFTTEDVGTTESGLNSMALANNSENVLLPLNEPVHGTKRRSQIQTFLDHHGGPGVQHIALASDDVLRTLREMRARSAMGGFEFLPPPLSDYYDGVRRCAGDVLTEAQINECQELGVMVDRDDEGVLLQIFTKPVGDRPTFFVEIIQRIGCMEKDEKGQEYQKGGCGGFGKGNFGQLFKSIEDYEKSLEAKQAAAAATAQGS | 4.12 | 4.12 | 0.298 s⁻¹ | 0.298 s⁻¹ |
| 0.713 | 0.353 | 0.252 | 0.252 | P056028-B-06 (protein, Zea mays variant form created by artificial means.) MGPTPTATAAGAAVAAASAAEQAAFRLVGHRNFVRFNPRSDRFQTLAFHHVELWCADAASAAGRFSFALGVPLAARSDLSTGNSAHASLLLRSGSLSLLFTAPYAHGADAATAALPSFSAAAARRFAADHGLAVRAVALRVADAEDAFRASVAAGARPAFGPVDLGRGFRLAEVELYGDVVLRYVSYPDGAAGEPFLPGFEGVASPGAADYGLSRFDHIVGNVPELAPAAAYMAGFTGFHEFAEFTTEDVGTTESGLNSMALANNSENVLLPLNEPVHGTKRRSQIQTFLDHHGGPGVQHIALASDDVLRTLREMRARSAMGGFEFLPPPLSDYYDGVRRCAGDVLTEAQINECQKLGVMVDRDDEGVLLQIFTKPVGDRPTFFLEIIQRIGCMEKDEKGQEYQKGGCGGFGKGNFGQLFKSIEDYEKSLEAKQAAAAATAQGS | 5.03 | 5.03 | 0.333 s⁻¹ | 0.333 s⁻¹ |
| 0.718 | 0.273 | 0.196 | 0.196 | P056028-B-04 (protein, Zea mays variant form created by artificial means.) MGPTPTATAAGAAVAAASAAEQAAFRLVGHRNFVRFNPRSDRFQTLAFHHVELWCADAASAAGRFSFALGVPLAARSDLSTGNSAHASLLLRSGSLSLLFTAPYAHGADAATAALPSFSAAAARRFAADHGLAVRAVALRVADAEDAFRASVAAGARPAFGPVDLGRGFRLAEVELYGDVVMRYVSYPDGAAGEPFLPGFEGVASSGAADYGLNRFDHIVGNVPELAPAAAYMAGFTGFHEFAEFTTEDVGTTESGLNSMALANNSENVLLPLNEPVHGTKRRSQIQTFLDHHGGPGVQHIALASDDVLRTLREMRARSAMGGFEFLPPPLSDYYDGVRKCAGDVLTEAQINECQELGVMVDRDDEGVLLQIFTKPVGDRPTFFLEIIQRIGCMEKDEKGQEYQKGGCGGFGKGNFGQLFKSIEDYEKSLEAKQAAAAATAQGS | 3.24 | 3.24 | 0.275 s⁻¹ | 0.275 s⁻¹ |
| 0.732 | 0.353 | 0.259 | 0.259 | P056028-B-03 (protein, Zea mays variant form created by artificial means.) MGPTPTATAAGAAVAAASAAEQAAFRLVGHRNFVRFNPRSDRFQTLAFHHVELWCADAASAAGRFSFALGVPLAARSDLSTGNSAHASLLLRSGSLSLLFTAPYAHGADAATAALPSFSAAAARRFAADHGLAVRAVALRVADAEDAFRASVAAGARPAFGPVDLGRGFRLAEVELYGDVVLRYVSYPDGAAGEPFLPGFEGVASPGAADYGLNRFDHIVGNVPELAPAAAYMAGFTGFHEFAEFTTEDVGTTESGLNSMALANNSENVLLPLNEPVHGTKRRSQIQTFLDHHGGPGVQHIALASDDVLRTLREMRARSAMGGFEFLPPPLSDYYDGVRRCAGDVLTEAQINECQRLGVMVDRDDEGVLLQIFTKPVGDRPTFFLEIIQRIGCMEKDEKGQEYQKGGCGGFGKGNFGQLFKSIEDYEKSLEAKQAAAAATAQGS | 4.63 | 4.63 | 0.298 s⁻¹ | 0.298 s⁻¹ |
| 0.734 | 0.287 | 0.211 | 0.211 | P056028-B-05 (protein, Zea mays variant form created by artificial means.) MGPTPTATAAGAAVAAASAAEQAAFRLVGHRNFVRFNPRSDRFQTLAFHHVELWCADAASAAGRFSFALGVPLAARSDLSTGNSAHASLLLRSGSLSLLFTAPYAHGADAATAALPSFSAAAARRFAADHGLAVRAVALRVADAEDAFRASVAAGARPAFGPVDLGRGFRLAEVELYGDVVLRYVSYPDGAAGEPFLPGFEGVASPGAADYGLSRFDHIVGNVPELAPAAAYMAGFTGFHEFAEFTTEDVGTTESGLNSMALANNSENVLLPLNEPVHGTRRRSQIQTFLDHHGGPGVQHIALASDDVLRTLREMRARSAMGGFEFLPPPLSDYYDGVRKCAGDVLTEAQINECQELGVMVDRDDEGVLLQIFTKPVGDRPTFFLELIQRIGCMEKDEKGQEYQKGGCGGFGKGNFGQLFKSIEDYEKSLEAKQAAAAATAQGS | 3.85 | 3.85 | 0.305 s⁻¹ | 0.305 s⁻¹ |
